How the values were obtained:
[1] = target: T1, recombinant human TNFα (human, UniProt P01375 77-233, 125I-labeled in the receptor binding inhibition assay; unlabeled in the EIA); test: Competition radioligand assay: inhibition of 5 ng/ml 125I-TNFα binding to plate-coated p55-sf2
T1 construct: also called huTNFα; tumor necrosis factor alpha

[2] = target: T1, recombinant human TNFα; test: inhibition of 125I-TNFα binding to plate-coated p55-sf2; reference TNV118 and TNV14
Experimental: 50:1 of p55-sf2 at 0.5:g/ml in PBS was added to Optiplates to coat the wells during a one-hour incubation at 37° C. Serial dilutions of the eight TNV cell supernatants were prepared in 96-well round-bottom plates using PBS/0.1% BSA as diluent. […] The mixture was preincubated for one hour at RT. […] After 2 hrs at RT, Optiplates were washed three times with PBS-Tween. […] of Microscint-20 was added and the cpm bound determined using the TopCount […].
The concentrations of the TNV mAbs in their respective cell supernatants were first determined by standard ELISA analysis for human IgG.

[3] = target: T1, recombinant human TNFα; test: cell-based or functional assay

| Binder | IC50 (read off the curve) [1] | fold better at blocking TNF binding than TNV118 and TNV14 [2] | neutralizing TNFα bioactivity [3] |
| --- | --- | --- | --- |
| TNV148 (antibody, V domains shown) VH: QVQLVESGGGVVQPGRSLRLSCAASGFIFSSYAMHWVRQAPGNGLEWVAFMSYDGSNKKYADSVKGRFTISRDNPKNTLYLQMNSLRAEDTAVYYCARDRGIAAGGNYYYYGMDVWGQGTTVTVSS VL: EIVLTQSPATLSLSPGERATLSCRASQSVYSYLAWYQQKPGQAPRLLIYDASNRATGIPARFSGSGSGTDFTLTISSLEPEDFAVYYCQQRSNWPPFTFGPGTKVDIKR | ~4 ng/mL | ~4 fold | 4 fold |
| TNV196 (antibody, V domains shown) VH: QVQLVESGGGVVQPGRSLRLSCAASGFTFSSYAMHWVRQAPGKGLEWVAFISYDGSNKKSADSVKGRFTVSRDNSKNTLFLQMNSLRAEDTAVFYCARDRGIGAGGNYYYYGMDVWGQGTTVTVSS VL: EIVLTQSPATLSLSPGERATLSCRASQSVYSYLAWYQQKPGQAPRLLIYDASNRATGIPARFSGSGSGTDFTLTISSLEPEDFAVYYCQQRSNWPPFTFGPGTKVDIK | ~4 ng/mL | – | 4 fold |
| TNV86 (antibody, human IgG1, V domains shown, Totally human IgG1 kappa from hybridoma, tested as hybridoma supernatant; Variable regions identical to TNV148; also called GenTNV86.14.34; C417A) VH: QVQLVESGGGVVQPGRSLRLSCAASGFIFSSYAMHWVRQAPGNGLEWVAFMSYDGSNKKYADSVKGRFTISRDNPKNTLYLQMNSLRAEDTAVYYCARDRGIAAGGNYYYYGMDVWGQGTTVTVSS VL: EIVLTQSPATLSLSPGERATLSCRASQSVYSYLAWYQQKPGQAPRLLIYDASNRATGIPARFSGSGSGTDFTLTISSLEPEDFAVYYCQQRSNWPPFTFGPGTKVDIK | – | ~4 fold | – |
